In patent US20230192831A1:
Positions count from the first letter of the chain named.

B1: H4H6250P (antibody, human IgG4, V domains shown)
VH: QVQLVESGGGVVQPGRSLRLSCAASGFTFSNYGMHWVRQAPGKGLEWVAVIWYDGSNKYYADSVKGRFTISRDNSRKTLYLQMNSLRAEDTAIYYCTRDDYGDYDYPFDYWGQGTLVTVSS
VL: DIQMTQSPSSLSASVGDRVTITCRASQGIRNDLGWYQQKPGKAPKRLIYAASSLQSGVPSRFSGTGSGTEFTLTISSLQPEDFATYYCLQHNSYPPFTFGPGTKVDIK
B2: H4H6252P (antibody, human IgG4, V domains shown)
VH: B1 VH with K43R, Y53F, R76K, K77N, A88S, I93V
VL: B1 VL with T65S, H91Y, S93T
B3: H4H6260P (antibody, human IgG4, V domains shown)
VH: QVQLVESGGGVVQPGRSLRLSCAASGFTFSTYGMHWVRQAPGKGLEWVAIIWYDGSNYYYADSVKGRFTISRDNSKNTLYLQMNSLRAEDTAVYYCAREDRNDVFDIWGQGTMVTVSS
VL: EIVLTQSPATLSLSPGERATLSCRASQSVSSFLAWYQQKPGQAPRLLIYDSSNRATGIPARFSGSGSGTDFTLTISSLEPEDFAVYYCQQLSNWPPITFGQGTRLEIK
B4: H4H6248P (antibody, human IgG4, V domains shown)
VH: QVQLVESGGGVVQPGRSLRLSCAASGFTFSNYGMHWVRQVPGKGLEWVAVIWYDGSNKYYADSVKGRFTISRDNSKNTLYLQMNSVRAEDTAVYYCARDDYGDSPGFDYWGQGTLVTVSS
VL: EIVMTQSPATLSVSPGERATLSCRASQSVSSSLAWYQQKPGQAPRLLIYDASTRATGIPARFSGSGSGTEFTLTISGLQSEDFAVYYCQQYNNWPPWTFGQGTKVEIK
B5: H4H6270P (antibody, human IgG4, V domains shown)
VH: QVQLVESGGDVVQPGRSLRLSCAASGFTFSSYGMHWVRQAPGKGLEWVAIIWNDGSNKYYTDSVKGRFTISRDNSKNTLYLQMNGLRAEDTAIYYCARDQDQFDYWGQGTLVTVSS
VL: B4 VL with V29I, S31T, S32N, Q37R, E70D, G77S, N92S, W97Y, V105L
B6: H4H6251P (antibody, human IgG4, V domains shown)
VH: B4 VH with R16K, N31R, V40A, V86L, E89D, V93M, Y109F
VL: B4 VL with S32N, S65T, G77S, V85L, N92D, N93D

These binders were tested against recombinant human GREM1 (hGREM1-His; C-terminal 10His tagged, R&D, #5190-GR) (human) (UniProt O60565) (assay: cell-based or functional assay).
recombinant human GREM1 (hGREM1-His; C-terminal 10His tagged, R&D, #5190-GR) (human), sequence (O60565 other isoform, or with tags, fused parts or gaps limits assumed, form in doubt): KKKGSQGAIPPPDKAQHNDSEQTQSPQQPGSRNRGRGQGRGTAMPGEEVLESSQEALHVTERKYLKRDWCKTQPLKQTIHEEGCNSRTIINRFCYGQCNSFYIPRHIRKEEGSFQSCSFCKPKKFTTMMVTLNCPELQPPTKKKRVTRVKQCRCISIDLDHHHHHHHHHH

| Binder | IC50 [M], W-20-17/BRE-luc luciferase bioassay, 100 pM hBMP4 and 10 nM hGREM1-His | hGREM1-His Inhibition IC50, M; W-20-17 cell differentiation assay (alkaline phosphatase) |
| --- | --- | --- |
| B1 | 4.4e-10 M | 12 nM |
| B2 | 8.2e-10 M | 6.1 nM |
| B3 | 4.6e-10 M | 3.3 nM |
| B4 | 5.3e-10 M | 5.6 nM |
| B5 | 5.4e-10 M | 3.1 nM |
| B6 | 6.3e-10 M | 11 nM |

These binders were tested against recombinant human GREM1 (hGREM1-His; C-terminal 10His tagged, R&D, #5190-GR) (human) (UniProt O60565) (assay: BLI Octet, captured mAb, 100 nM GREM1).

| Binder | Binding Signal with 30 sec Association (nm) | Binding Signal with 300 sec Association (nm) |
| --- | --- | --- |
| B1 | 0.2 nm | 0.37 nm |
| B2 | 0.23 nm | 0.44 nm |
| B3 | 0.24 nm | 0.42 nm |
| B4 | 0.21 nm | 0.42 nm |
| B5 | 0.2 nm | 0.39 nm |
| B6 | 0.27 nm | 0.45 nm |

What follows are binders tested against recombinant human GREM1 (hGREM1-His; C-terminal 10His tagged, R&D, #5190-GR) (human) (UniProt O60565) (assay: BLI Octet, captured mAb, 100 nM GREM1 + 5 uM heparin).

| Binder | Binding Signal with 30 sec Association (nm) | Binding Signal with 300 sec Association (nm) |
| --- | --- | --- |
| B1 | 0.06 nm | 0.32 nm |
| B2 | 0.04 nm | 0.35 nm |
| B3 | 0.07 nm | 0.37 nm |
| B4 | 0.04 nm | 0.37 nm |
| B5 | 0.05 nm | 0.33 nm |
| B6 | 0.03 nm | 0.36 nm |

The binders below were run against recombinant human GREM1 (hGREM1-His; C-terminal 10His tagged, R&D, #5190-GR) (human) (UniProt O60565) (assay: BLI Octet, captured mAb, 100 nM GREM1 without vs with 5 uM heparin).

| Binder | Reduction in Signal from Heparin at 30 sec | Reduction in Signal from Heparin at 300 sec |
| --- | --- | --- |
| B1 | 0.14 nm | 0.05 nm |
| B2 | 0.19 nm | 0.09 nm |
| B3 | 0.17 nm | 0.05 nm |
| B4 | 0.17 nm | 0.05 nm |
| B5 | 0.15 nm | 0.06 nm |
| B6 | 0.24 nm | 0.09 nm |
